By stoichiometry N is commonly meant the number of molecules, sites or subunits per partner or assembly.

The values below come from paper PMC6770826, “HDX and Native Mass Spectrometry Reveals the Different Structural Basis for Interaction of the Staphylococcal Pathogenicity Island Repressor Stl with Dimeric and Trimeric Phage dUTPases” (Biomolecules, 2019).

Series [1] addresses φNM1 phage dUTPase (Staphylococcus aureus phage φNM1) (UniProt A0EWK2). As to the kind of experiment: native MS; electrospray QTOF, positive ion mode; proteins at 40 μM in 5 mM NH4HCO3 pH 8.0.
For series [2] the target is unchanged. Nature of the series: enzyme inhibition (steady-state dUTPase activity); DUTφNM1 with Stl at 0-300 nM, pre-incubated 5 min; 293 K; 1 mM HEPES-HCl pH 7.5, 5 mM MgCl2, 150 mM KCl, phenol red; quadratic binding equation fitted; apparent.
For series [3] the target is unchanged.
Series [4] shares this target. Nature of the series: cross-linking; disuccinimidyl suberate (DSS, 20 mM), 20 °C, 1 h; 20 μM each protein alone or 1:1 mixture (40 μM total); SDS-PAGE.
The target of series [5] is Stl repressor protein of S. aureus pathogenicity island SaPIbov1 (Staphylococcus aureus (pathogenicity island SaPIbov1)). Described as above.
Series [6] concerns the molecule itself. The description is as above.

Regarding “Stl repressor protein of S. aureus pathogenicity island SaPIbov1 (natural protein)”, the stoichiometry N (Stl per DUTφNM1) in series [1] and in series [4] was 1 each time. In series [2], the Ki was 34 nM. For the same molecule, the maximal inhibition of the steady-state dUTPase activity of DUTφNM1 by Stl (0-300 nM) in series [3] came out at 40%. Also, the stoichiometry N in series [5] worked out at 2.

B1: φNM1 phage dUTPase (enzyme)
chain: TNTLTIDQLQELLQIQKEFDDRIPTLNLRDSKIAYVVEFFEWFNTLETFKNWKKKPGKPLDVQLDELADMLAFGLSIANQVGVSSEEIKEAIESSFKDTEFHKMFNFKDKEFAQDAVVSTPQIIFKEFYPDQQAIVIVIDIAYNLYSIDQLIDAYKKKMKRNHERQDGTADAGKGYV
notes: dUTPase of Staphylococcus aureus phage φNM1, Uniprot ID A0EWK2, residues 2-178; monomer mass 20976 Da printed; also called DUTφNM1; homodimeric φNM1 dUTPase; source: E. coli BL21 Rosetta (DE3), purified (glutathione-agarose, on-column thrombin cleavage); not shown: GST, N-terminal, cleaved
With B1, in series [6], the “stoichiometry N” value turned out to be 2.
